Measured values taken from the supplement of paper PMC11865577.

What follows are sequences tested on TO-3-N3-2 (biotin conjugate) (assay: pull-down binding Z-score (relative to library population); higher = stronger binding). Conditions: RNA library: Library-2.
In short: (§1)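 Streptavidin beads bearing 100 pmol of a biotin-conjugated small molecule were incubated for 60 min at 25 °C with 1 μg of heat-folded, Cy5- or Cy3-end-labelled RNA library in phosphate/NaCl/KCl buffer. Hot SDS eluted the RNA that stayed bound after three washes, and this RNA was hybridised for 20 h at 55.5 °C to a DNA barcode microarray. Binding was expressed as a Z-score against the library mean and standard deviation, after subtraction of a beads-only signal and trimmed averaging of barcoded replicate probes.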

Sequence	pull-down binding Z-score
CCCAAGCAGGCUUUGUGUGAGCAGUGAGGCUAUUUAUUCACUUGGGUGCGAGCUCACACGAAGCCUGCUUGGG [hsa-mir-6839]	0.815
CCCACCAUGUACCAGUGGG [hsa-mir-4422]	-0.535
CCCACCCUGAGUUUUGGUGGG [hsa-mir-6508]	-0.26
CCCACCUCCAGCAUUGGG [hsa-mir-1267]	-0.393
CCCACGGCCCUUGUCAGUGUG [hsa-mir-3190]	-0.14
CCCACGUCGCAUGCGCCCCGGGAAAGCGUGGG [hsa-mir-3180-1_3180-3_3180-2]	-0.158
CCCACUCCAAAGUUCACAGAAUGGGUGG [hsa-mir-541]	0.837
CCCACUUCCUGGA [hsa-mir-4260]	-0.529
CCCAGAGAAAGCCUGAACGUUGGG [hsa-mir-585]	0.0232
CCCAGCCUUCCAGAGUUGGUGCCAGG [hsa-mir-4476]	0.0973
CCCAGCCUUGGCGUUCAGGUGCUGAG [hsa-mir-3150b]	-0.23
CCCAGCUUUGUGACUGUAAGUGUUGGA [hsa-mir-184]	0.088
CCCAUAAGGGUCGAAUGGG [hsa-mir-4713]	-0.0623
CCCAUAUAAUAUUAGGGG [hsa-mir-4483]	0.176
CCCAUAUGAACAUACAAUGCUAUGGA [hsa-mir-1-2]	-0.224
CCCAUAUGGACCUGCUAAGCUAUGGA [hsa-mir-1-1]	-0.0364
CCCAUAUGGAUUACUUUGCUAUGGA [hsa-mir-206]	-0.188
CCCAUUUAAAAUAUGGAA [hsa-mir-548ai]	-0.0892
CCCCCAAUUAAAGUAGAUUGGGGG [hsa-mir-3153]	-0.696

Sequence	pull-down binding Z-score
CCCCGCGCGCGGACAGACACACGGACAAGUCCCGCCAGGGG [hsa-mir-4492]	-0.38
CCCGAGCUGGGCAGCAUGAAGGGCCUCGGG [hsa-mir-486-2]	0.949
CCCGAGGCCCUUCAUGCUGCCCAGCUCGGG [hsa-mir-486-1]	0.923
CCCGGAUACCUCAGAAAUUCGG [hsa-mir-760]	-0.461
CCCGGCCGGCAGCCCCCGGCCUUAAAGCGCGGG [hsa-mir-4741]	0.194
CCCGUAGGACACCGAGGCUUAUGAAUAGGA [hsa-mir-6081]	0.141
CCCUAGGACUUACUUGUGCAGGG [hsa-mir-4253]	-0.403
CCCUCAUAUGGCAGUUGGCGAGGGCCCAGUGAG [hsa-mir-6769a]	0.582
CCCUGCACUCAGUUUGCACAGGG [hsa-mir-4511]	-0.184
CCCUGCCCAGUGCAGGAG [hsa-mir-6069]	-0.478
CCCUGGGGAGCUGCUGCAGGCAGCAGGUGGGCGGGACGCCAGCAGGCUGUCUAGCUGUUCCCAUGAUGG [hsa-mir-6843]	0.49
CCCUGGUCAGACUCUCCGGGG [hsa-mir-4675]	-0.287
CCCUUGUCUUCCCAGAG [hsa-mir-4739]	-0.41
CCGACUCGGGCUCUGGAGCAGUC [hsa-mir-152]	0.274
CCGACUCUGAGUAUGAUAGAAGUC [hsa-mir-148a]	0.613
CCGAGUGAUCUCGGU [hsa-mir-8071-1_8071-2]	-0.324
CCGCCCUCGUGUCUGUGGCGGUGG [hsa-mir-663a]	-0.231
CCGCCUUUGUGCUGUCCUUGGAGGGAGG [hsa-mir-1910]	-0.0292

The sequences below were run on TO-3-N3 (biotin conjugate) in the same assay as above. Conditions: RNA library: Library-2.
In short: as §1

Sequence	pull-down binding Z-score
CAUUGUAAUAGUUCAUAUGGGCACUG [hsa-mir-3660]	-0.0141
CAUUUCAGCGUAUAUAUGUAUAUGUGGCUGUG [hsa-mir-19b-2]	1.07
CAUUUCCUUCAUGAUUAGGAAUACUACUUUGAAAUG [hsa-mir-4712]	-0.641
CAUUUGUGGCAUGGACCAUUUGUG [hsa-mir-4504]	-0.874
CCAAAGAAACUUUUUUGG [hsa-mir-6079]	-0.414
CCAAAUCAGAAAAGGAUUUGG [hsa-mir-4520-1]	-0.497
CCAAAUCCUUUUCUGAUUUGG [hsa-mir-4520-2]	-0.645
CCAAAUUUCAUGCG [hsa-mir-4454]	-0.0597
CCAAGCUUAGUUUGG [hsa-mir-1302-11_1302-10_1302-3_1302-2_1302-9]	0.74
CCAAGGCUCUGGGGUCUCACCCUUGG [hsa-mir-6842]	0.484
CCAAGGUUGUGCUUUUAGGAAAUGUUGGCUGUCCUGCGG [hsa-mir-5739]	-0.448
CCAAGUCUGACCACCUGAGGAAUGCCUGG [hsa-mir-1269a]	-0.498
CCAAUGGUAUCCAGUGAUUCGUUGA [hsa-mir-4709]	-0.486
CCACAUAGGAGGGACAGCGGCCUUUCCAACAGG [hsa-mir-9500]	0.253
CCACCCACCAGGGAGCUUUCCAUGGGCUGUGGG [hsa-mir-4725]	0.47
CCACGGGCUGGGCACAGUGG [hsa-mir-3159]	1.04
CCACUACCGGUGA [hsa-mir-4658]	-0.207
CCACUGGGAAUGCUCCCUGAGGACGUUAUAUGAGUG [hsa-mir-4319]	0.544
CCAGGCCACAUAAUGAGCCAAA [hsa-mir-6771]	0.665
CCAGGCCCCACGGAGAACCAGGGCACCUGG [hsa-mir-8058]	-0.288
CCAGGUUCCAUGUGAUGCUGAA [hsa-mir-6806]	-0.162
CCAGUGCUGGGCUCAGACCCUGG [hsa-mir-150]	-0.0352
CCAGUGGUUUUCCUUGACUGUG [hsa-mir-298]	-0.421
CCAUAAGCUGUCUAAAACUUCG [hsa-mir-4513]	-0.354
CCAUACAAUAUUUGG [hsa-mir-1302-1]	-0.642
CCAUCAAGCCCCACCAGAAGGUGGAGGCCCAGGUGAG [hsa-mir-4721]	0.105
CCAUGCAACAUUUGG [hsa-mir-1302-4]	-0.262
CCAUGCUGUUUAAGCCUAGCAUAG [hsa-mir-4423]	0.0223

Sequence	pull-down binding Z-score
CCAUGGGGGCCUUGCUGUGU [hsa-mir-6808]	1.05
CCAUGGUGUGCUCUGAUCCCCCUGUGG [hsa-mir-6848]	0.35
CCAUGUAAUCUUUGG [hsa-mir-1302-5]	0.507
CCAUGUGAGUGAAGCCUGAUCAUCAUGUG [hsa-mir-8070]	-0.67
CCAUGUGGUUGCGAGGUAUGAGUAAAACAUGG [hsa-mir-218-1]	-0.697
CCAUUAUUGCUACUGUUCAGCAGGUGCUGCUGGUGGUGAUGG [hsa-mir-1260b]	0.0654
CCAUUAUUUUUAAUAAUUAUAAUAAUGG [hsa-mir-548s]	0.0929
CCAUUUACUUGAACCUUUAGGAGUGA [hsa-mir-489]	0.389
CCCAAACUUGGAGCACUUGACCUUUGGC [hsa-mir-4687]	0.611
CCCAAGCAGGCUUUGUGUGAGCAGUGAGGCUAUUUAUUCACUUGGGUGCGAGCUCACACGAAGCCUGCUUGGG [hsa-mir-6839]	0.33
CCCACCAUGUACCAGUGGG [hsa-mir-4422]	-0.343
CCCACCCUGAGUUUUGGUGGG [hsa-mir-6508]	-0.066
CCCACCUCCAGCAUUGGG [hsa-mir-1267]	-0.458
CCCACGGCCCUUGUCAGUGUG [hsa-mir-3190]	0.791
CCCACGUCGCAUGCGCCCCGGGAAAGCGUGGG [hsa-mir-3180-1_3180-3_3180-2]	0.614
CCCACUCCAAAGUUCACAGAAUGGGUGG [hsa-mir-541]	2.05
CCCACUUCCUGGA [hsa-mir-4260]	-0.513
CCCAGAGAAAGCCUGAACGUUGGG [hsa-mir-585]	-0.148
CCCAGCCUUCCAGAGUUGGUGCCAGG [hsa-mir-4476]	0.892
CCCAGCCUUGGCGUUCAGGUGCUGAG [hsa-mir-3150b]	-0.0824
CCCAGCUUUGUGACUGUAAGUGUUGGA [hsa-mir-184]	0.669
CCCAUAAGGGUCGAAUGGG [hsa-mir-4713]	0.401
CCCAUAUAAUAUUAGGGG [hsa-mir-4483]	-0.469
CCCAUAUGAACAUACAAUGCUAUGGA [hsa-mir-1-2]	-0.62
CCCAUAUGGACCUGCUAAGCUAUGGA [hsa-mir-1-1]	-0.0116
CCCAUAUGGAUUACUUUGCUAUGGA [hsa-mir-206]	0.0156
CCCAUUUAAAAUAUGGAA [hsa-mir-548ai]	0.535
